Source: article PMC3338484

System: T1, Nc1nc2c(c(=O)[nH]1)N1CN(c3ccc(C(=O)NC(CCC(=O)O)C(=O)O)cc3)CC1CN2
T1 construct: hexa-histidine tag with TEV protease site (N, cleaved yes); made in house; host or cells: E. coli BL21 (DE3)
Assay: FolD enzyme assay (absorbance at 350 nm), IC50 determination
Type: biochemical, Pseudomonas aeruginosa
Details: other: 1 nM PaFolD, end-point assay; other substrate saturating; mean ± SD (n = 4); pH 7.9
Procedure: Enzyme activity was assayed by measuring the absorbance at 350 nm of the intermediate product in the reaction, N ^5,N ^10-methenyl-THF, following acidification of the reaction and consequent reconversion of the final product formyl-THF to the intermediate. Following optimization of the assay buffer and determination of the enzyme linearity, assays were carried out at room temperature in a 50 µL reaction volume containing 25 mM bicine, pH 7.9, 1 mM dithiothreitol, 0.05% CHAPS, 0.2 mg mL^−1 BSA, 1 nM recombinant FolD, […] NADP^+ and 35 µM N ^5,N ^10-methylene-THF. Michaelis constants for the two substrates (NADP^+ and N ^5,N ^10-methylene-THF) were determined in an end-point assay, using these buffer and enzyme conditions.
The HTS was performed with a compound collection of 79,029 diverse structures based around 4000 chemical scaffolds. All compounds were dissolved in 100% DMSO to a concentration of 3 mM. Single point inhibition assays were carried out at room temperature in clear, flat bottom, polystyrene, 384-well plates (Matrix). Each assay was performed in a 50 µL reaction volume as described above. […] The FolD assay was run at room temperature for 20 min and the signal was allowed to develop for 10 min before the absorbance of each well was read at 350 nm using an EnVision multilabel plate reader (PerkinElmer Life Sciences). […]

PaFolD (Pseudomonas aeruginosa PAO1)
Km: 26 ± 4 µM
